# From paper PMC12692543
# What was measured:
# [1] = target: rhFrizzled-4/FC Chimera (human) (UniProt Q9ULV1); test: ELISA; rhFrizzled-4/Fc coated on a 96-well plate overnight; Norrin preparations as extracted from bacteria, BEFORE refolding, serially diluted (0.8–500 ng/mL) in 1% BSA or casein in PBS, 2 h; detected with biotinylated Norrin antibody and streptavidin–HRP; result as percent of a comparison control (R&D Systems Norrin)
# [2] = target: rhFrizzled-4/FC Chimera (human) (UniProt Q9ULV1); test: ELISA; rhFrizzled-4/Fc coated on a 96-well plate overnight; Norrin preparations AFTER denaturation and refolding with disulfide reshuffling (GSH/GSSG, 1 M arginine), serially diluted (0.8–500 ng/mL) in 1% BSA or casein in PBS, 2 h; detected with biotinylated Norrin antibody and streptavidin–HRP; result as percent of a comparison control (R&D Systems Norrin)
percent of expected binding activity relative to comparison control (R&D Systems Norrin) [1] [%],percent of expected binding activity relative to comparison control (R&D Systems Norrin) [2] [%],Substance
7,94,"MBP-linker-Norrin^K86P (intact, uncut fusion protein from plasmid construct Nor-w-Linker) (from UniProt Q00604 25-133)"
14,101,Norrin^K86P released from MBP-linker-Norrin by HRV3C protease (from UniProt Q00604 25-133) (natural protein)
